Reference: US9163227B2, “Anti-diabetic compounds” (PFIZER INC., priority 2011, dated 2015)
Values joined by “and” are separate entries in the source; they are usually repeats but may differ in a detail not shown here. Equal entries are not always repeated. Where two headings read alike, the source gives them in different places. Blank lines part the entries; values can stand above or below the molecule they belong to.

Experiments:
[1] = Body weight and liver weight in ob/ob mice; format: in vivo; settings: single SC dose 3 mg/kg; for Cumulative body weight change, mean body weight: FIG. 5A; for mean liver weight: FIG. 5B
Experimental: (§1) The efficacy of FGF21 antibodies conjugates was evaluated in two murine obese insulin resistant models—ob/ob mice and high-fat diet-induced obese mice. For both models, male mice (6-8 weeks of age for ob/ob, 12-14 weeks of age for DIO with high-fat diet initiated at 6 weeks of age) were housed 2-4/cage and FGF21 antibody conjugates were administered by SC injection. Body weight was measured daily in the morning. Glucose tolerance was assessed by oral glucose tolerance test. Briefly, mice were fasted for 4-5 hrs in the morning of the day of testing. A basal blood sample was obtained and blood glucose levels were determined using a portable glucometer.

[2] = Mouse pharmacokinetics of FGF21 antibody conjugates; format: in vivo, Swiss-Webster mice; settings: mice
Experimental: The PK of FGF21 antibody conjugates were examined in mice after IV or SC administration. […] Antibody conjugates concentrations in serum were determined using an ELISA which captured the FGF21 portion of the antibody conjugates through a monoclonal anti-hFGF21 antibody bound to a 96-well plate. FGF21 antibody conjugates bound to the plate were detected through an anti-hFc monoclonal antibody, and concentrations were determined using a standard curve of the PK dosing solution diluted into serum-containing assay buffer. SC bioavailability was calculated as the ratio of the area-under the curve (AUC) of the SC serum concentration profile divided by the AUC of the IV serum concentration profile.

[3] = target: Glut1 mRNA expression in differentiated 3T3-L1 adipocytes (Mus musculus, UniProt P16092+Q99N32); assay: Glut1 Taqman assay; format: cell-based; settings: for EC50: 6 hrs
Experimental: Differentiated 3T3-L1 adipocytes were used to measure the Glut1 mRNA expression by qPCR method. Overnight serum starved day 10-14 differentiated 3T3-L1 adipocytes were treated with compounds for 6 hrs. Total RNA was extracted from these cells, and Glut1 and GAPDH mRNA expression was measured using a Quantitect Probe RT-PCR kit and running a quantitative real time PCR reaction in a Taqman machine (Applied Biosystems®). The bioactivity of the compounds was determined by a fold change in Glut1 mRNA levels normalized by the GAPDH mRNA levels from each sample. EC═values as measurements of the potency of the compounds were obtained from the dose response curves in the assay.
3T3-L1 adipocytes were seeded at day 8 in 24-well tissue culture plates (Falcon®, Cat#353047), and incubated in DMEM complete medium (10% FBS, 2 mM L-glutamine, 1% P/S) at 37° C., 5% CO2. […] The medium was aspirated, and then RNA extracted from the cells using the RNeasy mini Kit according to the manufacturer's instructions. RNA was measured at A260 nm using the Spectramax® Plus spectrophotometer.
In Glut1 Taqman assay, differentiated 3T3-L1 adipocytes were used to measure the Glut1 mRNA expression by real-time quantitative PCR (qPCR) method described below. Overnight serum starved day 10-14 differentiated 3T3-L1 adipocytes were treated with compounds for 6 hrs. Total RNA was extracted from these cells, and Glut1 and GAPDH mRNA expression was measured using a Quantitect Probe RT-PCR kit and running a real time quantitative PCR reaction in a Taqman machine. The bioactivity of the compounds was determined by a fold change in Glut1 mRNA levels normalized by the GAPDH mRNA levels from each sample. In cAMP assay, Chinese hamster ovary (CHO) cells over-expressing human GLP-1R(CHO-hGLP-1R) were seeded in 96-well plates in serum-free medium with 300 uM IBMX. Cells were incubated with compounds at RT for 1 hr. The cAMP levels were measured using a CisBio cAMP Kit according to manufacturer's instructions. The bioactivity of the compounds was determined by the EC50 values obtained from the assay (see Table 42).

[4] = tested on: ob/ob mice; assay: Oral glucose tolerance test in ob/ob mice (FGF21 conjugates); format: in vivo; settings: ob/ob mice; for Mean Glucose AUC (% of vehicle control) during OGTT: FIGS. 4A/4B, single SC dose 3 mg/kg
Experimental: as §1

[5] = target: differentiated 3T3-L1 adipocytes (Mus musculus, UniProt P16092+Q99N32); assay: Glucose uptake assay; format: cell-based
Experimental: Differentiated 3T3-L1 adipocytes were treated with compounds in the absence of serum for 24 hrs. Cells were then incubated with ^14C-2-deoxyglucose for 1 hr and glucose uptake into the cells was quantitated in Wallac 1450 MicroBeta (Trilux) instrument. Glucose uptake was expressed in counts per min (CPM). EC50 values as measurements of the potency of the compounds were obtained from the dose response curves in the assay.

[6] = differentiated 3T3-L1 adipocytes, protein or antibody conjugate as labelled, read-out: Glut1 Taqman assay EC50
[7] = 3T3-L1 adipocytes, 24 hrs, unconjugated protein

Chain of Glut1 mRNA expression in differentiated 3T3-L1 adipocytes (P16092 22-822): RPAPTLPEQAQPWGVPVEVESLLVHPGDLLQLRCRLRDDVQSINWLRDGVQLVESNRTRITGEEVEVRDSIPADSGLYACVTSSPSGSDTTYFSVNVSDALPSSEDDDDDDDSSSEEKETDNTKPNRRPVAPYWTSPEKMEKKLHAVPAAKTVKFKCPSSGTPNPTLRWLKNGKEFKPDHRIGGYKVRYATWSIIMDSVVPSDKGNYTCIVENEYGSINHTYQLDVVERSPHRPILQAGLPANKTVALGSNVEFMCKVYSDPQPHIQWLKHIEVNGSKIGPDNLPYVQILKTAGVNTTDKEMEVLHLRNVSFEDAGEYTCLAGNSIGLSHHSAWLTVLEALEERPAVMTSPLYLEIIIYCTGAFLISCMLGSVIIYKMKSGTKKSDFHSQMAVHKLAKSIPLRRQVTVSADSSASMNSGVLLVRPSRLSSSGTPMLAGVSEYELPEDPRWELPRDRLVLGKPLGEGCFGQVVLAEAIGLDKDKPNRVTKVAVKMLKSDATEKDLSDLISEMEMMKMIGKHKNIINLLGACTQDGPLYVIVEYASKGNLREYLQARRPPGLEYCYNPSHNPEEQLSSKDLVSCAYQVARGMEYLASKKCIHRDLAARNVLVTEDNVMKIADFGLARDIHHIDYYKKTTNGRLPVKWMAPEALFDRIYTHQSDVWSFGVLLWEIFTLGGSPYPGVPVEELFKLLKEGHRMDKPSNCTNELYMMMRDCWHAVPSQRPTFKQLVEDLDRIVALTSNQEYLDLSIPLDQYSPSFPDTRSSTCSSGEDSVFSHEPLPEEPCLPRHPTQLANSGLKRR
Chain of Glut1 mRNA expression in differentiated 3T3-L1 adipocytes (Q99N32 whole entry): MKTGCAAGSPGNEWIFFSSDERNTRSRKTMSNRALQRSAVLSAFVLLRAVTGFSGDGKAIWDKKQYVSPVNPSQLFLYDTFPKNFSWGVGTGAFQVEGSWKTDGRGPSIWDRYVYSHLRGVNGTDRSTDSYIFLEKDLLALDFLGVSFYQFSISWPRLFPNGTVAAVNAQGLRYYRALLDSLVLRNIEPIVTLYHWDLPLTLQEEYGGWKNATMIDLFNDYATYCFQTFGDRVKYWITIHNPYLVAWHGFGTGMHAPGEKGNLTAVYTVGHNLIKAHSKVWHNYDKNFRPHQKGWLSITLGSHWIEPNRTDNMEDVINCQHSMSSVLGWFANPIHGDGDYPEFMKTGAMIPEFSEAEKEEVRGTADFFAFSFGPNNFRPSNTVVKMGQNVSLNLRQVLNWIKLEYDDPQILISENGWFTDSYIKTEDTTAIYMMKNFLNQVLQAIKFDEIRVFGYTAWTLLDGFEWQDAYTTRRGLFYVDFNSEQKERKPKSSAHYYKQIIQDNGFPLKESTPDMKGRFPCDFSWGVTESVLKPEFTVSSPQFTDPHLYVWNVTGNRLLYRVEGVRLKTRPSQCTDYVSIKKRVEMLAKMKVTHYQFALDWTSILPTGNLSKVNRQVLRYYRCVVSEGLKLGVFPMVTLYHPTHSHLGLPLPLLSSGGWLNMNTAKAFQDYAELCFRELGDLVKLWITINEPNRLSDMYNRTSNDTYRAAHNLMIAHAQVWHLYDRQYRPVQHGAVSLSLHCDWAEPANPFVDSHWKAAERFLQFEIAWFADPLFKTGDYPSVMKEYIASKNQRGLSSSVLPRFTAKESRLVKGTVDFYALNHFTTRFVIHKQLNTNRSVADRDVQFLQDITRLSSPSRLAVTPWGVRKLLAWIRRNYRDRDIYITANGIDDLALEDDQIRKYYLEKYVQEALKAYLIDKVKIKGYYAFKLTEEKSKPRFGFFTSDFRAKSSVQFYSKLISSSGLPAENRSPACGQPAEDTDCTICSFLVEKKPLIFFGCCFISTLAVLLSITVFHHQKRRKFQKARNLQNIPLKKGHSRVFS
Chain of differentiated 3T3-L1 adipocytes (P16092 22-822): as the sequence (P16092 22-822) above
Chain of differentiated 3T3-L1 adipocytes (Q99N32 whole entry): as the sequence (Q99N32 whole entry) above

B2: Ab-L5-FGF21ΔH-Knull-S181K: SEQ ID NO:24 combined with L5 at S181K and conjugated with h38C2 (conjugate, listed as Homo sapiens)
chain: PIPDSSPLLQFGGQVRQRYLYTDDAQQTEAHLEIREDGTVGGAADQSPESLLQLRALRPGVIQILGVRTSRFLCQRPDGALYGSLHFDPEACSFRELLLEDGYNVYQSEAHGLPLHLPGNRSPHRDPAPRGPARFLPLPGLPPALPEPPGILAPQPPDVGSSDPLSMVGPSQGRSPSYAK
modifications: L5 linker at K181 conjugated to h38C2 antibody
EC50 [3, 6]: > 500 nM

B6: FGF21ΔH-A129C: FGF21 cysteine mutant, SEQ ID NO:10 (protein, listed as Homo sapiens)
chain: PIPDSSPLLQFGGQVRQRYLYTDDAQQTEAHLEIREDGTVGGAADQSPESLLQLKALKPGVIQILGVKTSRFLCQRPDGALYGSLHFDPEACSFRELLLEDGYNVYQSEAHGLPLHLPGNKSPHRDPCPRGPARFLPLPGLPPALPEPPGILAPQPPDVGSSDPLSMVGPSQGRSPSYAS
activity in Glut1 Taqman assay (in words) ([3]; 3T3-L1 adipocytes): dose-dependent Glut1 induction | EC50 ([3]; 3T3-L1 adipocytes, serum-free DMEM 0.2% BSA, Taqman quantitative real-time PCR, read-out: Glut1 RNA expression EC50): 16 nM | EC50 [3, 6]: 1.4 nM

B7: FGF21ΔH-K56R-K59-K69R-K122R: FGF21 lysine mutant, SEQ ID NO:19 (protein, listed as Homo sapiens)
chain: PIPDSSPLLQFGGQVRQRYLYTDDAQQTEAHLEIREDGTVGGAADQSPESLLQLRALKPGVIQILGVRTSRFLCQRPDGALYGSLHFDPEACSFRELLLEDGYNVYQSEAHGLPLHLPGNRSPHRDPAPRGPARFLPLPGLPPALPEPPGILAPQPPDVGSSDPLSMVGPSQGRSPSYAS
EC50 [5, 7]: 0.9 nM | EC50 [3, 6]: 0.6 nM

B10: FGF21ΔH-K56-K59R-K69R-K122R: FGF21 lysine mutant, SEQ ID NO:18 (protein, listed as Homo sapiens)
chain: PIPDSSPLLQFGGQVRQRYLYTDDAQQTEAHLEIREDGTVGGAADQSPESLLQLKALRPGVIQILGVRTSRFLCQRPDGALYGSLHFDPEACSFRELLLEDGYNVYQSEAHGLPLHLPGNRSPHRDPAPRGPARFLPLPGLPPALPEPPGILAPQPPDVGSSDPLSMVGPSQGRSPSYAS
EC50 [5, 7]: 5.5 nM | EC50 [3, 6]: 0.9 nM

B11: Ab-L5-FGF21ΔH-Knull-H1K: SEQ ID NO:23 combined with L5 at H1K and conjugated with h38C2 (conjugate, listed as Homo sapiens)
chain: KPIPDSSPLLQFGGQVRQRYLYTDDAQQTEAHLEIREDGTVGGAADQSPESLLQLRALRPGVIQILGVRTSRFLCQRPDGALYGSLHFDPEACSFRELLLEDGYNVYQSEAHGLPLHLPGNRSPHRDPAPRGPARFLPLPGLPPALPEPPGILAPQPPDVGSSDPLSMVGPSQGRSPSYAS
modifications: L5 linker at K1 conjugated to h38C2 antibody
Cumulative body weight change, mean body weight [1]: 2.6 g | mean liver weight [1]: 2.4 g | Mean Glucose AUC (% of vehicle control) during OGTT [4]: 100 % of vehicle control | glucose tolerance in ob/ob mice (in words) [4]: compared poorly against Ab-FGF21ΔH-H125C

The next lines start with results.

EC50 [3, 6]: 6.5 nM
B1: Ab-L5-FGF21ΔH-K59: SEQ ID NO:19 combined with L5 at K59 and conjugated with h38C2 (conjugate, listed as Homo sapiens)
chain: PIPDSSPLLQFGGQVRQRYLYTDDAQQTEAHLEIREDGTVGGAADQSPESLLQLRALKPGVIQILGVRTSRFLCQRPDGALYGSLHFDPEACSFRELLLEDGYNVYQSEAHGLPLHLPGNRSPHRDPAPRGPARFLPLPGLPPALPEPPGILAPQPPDVGSSDPLSMVGPSQGRSPSYAS
modifications: L5 linker at K59 conjugated to h38C2 antibody
Cumulative body weight change, mean body weight [1]: 2.7 g | mean liver weight [1]: 2.4 g | IV half-life [2]: 13 h | Mean Glucose AUC (% of vehicle control) during OGTT [4]: 105 % of vehicle control

EC50 [3, 6]: 7.5 nM
B3: FGF21ΔH-Knull-S181K: FGF21 lysine-null mutant with S181K, SEQ ID NO:24 (protein, listed as Homo sapiens)
chain: PIPDSSPLLQFGGQVRQRYLYTDDAQQTEAHLEIREDGTVGGAADQSPESLLQLRALRPGVIQILGVRTSRFLCQRPDGALYGSLHFDPEACSFRELLLEDGYNVYQSEAHGLPLHLPGNRSPHRDPAPRGPARFLPLPGLPPALPEPPGILAPQPPDVGSSDPLSMVGPSQGRSPSYAK

EC50 [3, 6]: 1.2 nM
B4: FGF21ΔH-Knull-P2: FGF21 lysine-null mutant, SEQ ID NO:22 (protein, listed as Homo sapiens)
chain: PIPDSSPLLQFGGQVRQRYLYTDDAQQTEAHLEIREDGTVGGAADQSPESLLQLRALRPGVIQILGVRTSRFLCQRPDGALYGSLHFDPEACSFRELLLEDGYNVYQSEAHGLPLHLPGNRSPHRDPAPRGPARFLPLPGLPPALPEPPGILAPQPPDVGSSDPLSMVGPSQGRSPSYAS

EC50 [3, 6]: 1.2 nM
B5: FGF21ΔH-H125C: FGF21 cysteine mutant, SEQ ID NO:7 (protein, listed as Homo sapiens)
chain: PIPDSSPLLQFGGQVRQRYLYTDDAQQTEAHLEIREDGTVGGAADQSPESLLQLKALKPGVIQILGVKTSRFLCQRPDGALYGSLHFDPEACSFRELLLEDGYNVYQSEAHGLPLHLPGNKSPCRDPAPRGPARFLPLPGLPPALPEPPGILAPQPPDVGSSDPLSMVGPSQGRSPSYAS

EC50 [3, 6]: 16.6 nM
B8: Ab-L5-FGF21ΔH-Knull-P2: SEQ ID NO:22 combined at the N' terminus of P2 with L5 and conjugated with h38C2 (conjugate, listed as Homo sapiens)
chain: PIPDSSPLLQFGGQVRQRYLYTDDAQQTEAHLEIREDGTVGGAADQSPESLLQLRALRPGVIQILGVRTSRFLCQRPDGALYGSLHFDPEACSFRELLLEDGYNVYQSEAHGLPLHLPGNRSPHRDPAPRGPARFLPLPGLPPALPEPPGILAPQPPDVGSSDPLSMVGPSQGRSPSYAS
modifications: L5 linker at N-terminus, conjugated to h38C2 antibody
IV half-life [2]: 17 h

EC50 ([5]; unconjugated protein (per Examples 18-21), n in parentheses): 62 nM
B9: FGF21ΔH-L86C: FGF21 cysteine mutant, SEQ ID NO:14 (protein, listed as Homo sapiens)
chain: PIPDSSPLLQFGGQVRQRYLYTDDAQQTEAHLEIREDGTVGGAADQSPESLLQLKALKPGVIQILGVKTSRFLCQRPDGALYGSCHFDPEACSFRELLLEDGYNVYQSEAHGLPLHLPGNKSPHRDPAPRGPARFLPLPGLPPALPEPPGILAPQPPDVGSSDPLSMVGPSQGRSPSYAS

EC50 [3, 6]: 6.4 nM and 4.3 nM
B12: FGF21ΔH-Knull-H1K: FGF21 lysine-null mutant with H1K, SEQ ID NO:23 (protein, listed as Homo sapiens)
chain: KPIPDSSPLLQFGGQVRQRYLYTDDAQQTEAHLEIREDGTVGGAADQSPESLLQLRALRPGVIQILGVRTSRFLCQRPDGALYGSLHFDPEACSFRELLLEDGYNVYQSEAHGLPLHLPGNRSPHRDPAPRGPARFLPLPGLPPALPEPPGILAPQPPDVGSSDPLSMVGPSQGRSPSYAS
IV half-life [2]: 16 h | SC bioavailability [2]: 51% | SC half-life [2]: 11 h
